Data taken from US20110112172.

Tests used:
[1] = target: biotinylated human D-SDF-1 (mirror-image CXCL12) (Homo sapiens) (UniProt P48061); assay: pulldown; settings: 37 C
[2] = target: human SDF-1 alpha (CXCL12) (Homo sapiens) (UniProt P48061); assay: SPR; settings: L-RNA, 37 C
human SDF-1 alpha (CXCL12) (Homo sapiens), sequence (P48061 22-89): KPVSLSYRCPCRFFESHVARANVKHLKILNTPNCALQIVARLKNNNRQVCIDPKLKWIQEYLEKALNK

biotinylated human D-SDF-1 (mirror-image CXCL12) (Homo sapiens), sequence (P48061 22-92): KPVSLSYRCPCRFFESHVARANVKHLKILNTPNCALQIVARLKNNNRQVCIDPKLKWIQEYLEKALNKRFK

GAGAUAGGGGUUAGGGCUUAAAGUCGGCUGAUUCUC [190-A3-004 aptamer (D)]
Kd ([1]; same affinity as 190-A3-001): 4.6 nM

AGCGUGGUGUGAUCUAGAUGUAUUGGCUGAUCCUAGUCAGGUACGCU [193-G2-001 aptamer (D)]
Kd ([1]; better than 192-A10-001 in competition): 0.3 nM

AGCGUGGUGUGAUCUAGAUGUAUUGGCUGAUCCUAGUCAGGUACGCU [193-G2-001 Spiegelmer]
Kd [2]: 0.5 nM

AGCGUGGCGAGGUUAGGGCUAGAAGUCGGUCGACACGCU [191-D5-001 Spiegelmer]
Kd ([2]; FIG. 21 cited here is labelled 191-D5-007): 0.8 nM

GCUGUGAAAGCAACAUGUCAAUGAAAGGUAGCCGCAGC [192-A10-001 aptamer (D)]
Kd ([1]; 1 mM Mg, 1 mM Ca, pH 7.4): 1.5 nM

CGGGAGGUUAGGGCUAGAAGUCGGUCCCG [191-D5-007 Spiegelmer]
Kd [2]: 0.8 nM

CGGGAGGUUAGGGCUAGAAGUCGGUCCCG [191-D5-007 aptamer (D)]
Kd ([1]; somewhat better than 191-D5-001 in competition): 2.2 nM

GAGAUAGGGGUUAGGGCUUAAAGUCGGCUGAUUCUC [190-A3-004 Spiegelmer]
Kd [2]: 4.7 nM

GCUGUGAAAGCAACAUGUCAAUGAAAGGUAGCCGCAGC [192-A10-001 Spiegelmer]
Kd ([2]; 1 mM Mg, 1 mM Ca): 1 nM

GCGUGGUGUGAUCUAGAUGUAUUGGCUGAUCCUAGUCAGGUACGC [193-G2-012 aptamer (D)]
Kd [1]: 0.3 nM

GUGCUGCGGGGGUUAGGGCUAGAAGUCGGCCUGCAGCAC [197-B2 Spiegelmer]
Kd [2]: 0.9 nM
